Source: article PMC11109316, “In vivo neutralization of coral snake venoms with an oligoclonal nanobody mixture in a murine challenge model” (Nature Communications, 2024)

B1: TPL0629_01_D11 (VHH)
VHH: QVQLQESGGGLVQAGGSLRLSCAGSGDALGSYTMGWFRQAPGGGRDLVAQISVDGSSTYHLDSVRGRFTASRDNAKNTVYLEMNSLNSEDTAVYYCAAAPLLRGNYDYWGQGTQVTVSS
notes: also called anti-αNTx VHH; monovalent VHH
B2: TPL0629_01_A07 (VHH)
VHH: QVQLQESGGGLVQAGGSLRLSCTASEGTVSYSTVGWFRQAPGGGRDLVAQSGSSDEDTHVAGSVKGRFTISRDNTNNTVYLQMSSLKPEDSAVYYCAAAPGDQYKYWGQGTQVTVSS
notes: also called anti-αNTx VHH
B3: TPL0629_01_G06 (VHH)
VHH: QVQLQESGGGLVQAGGSLRLSCAASGRAFSSYTMGWFRQAPGDMRELVAQITSSGSSTYHIDSVEGRFAISRDNAKNTVYLQMNSLQPEDAAIYYCAGGLNAYQYWGQGTQVTVSS
notes: also called anti-αNTx VHH

biological target: T1, α-cobratoxin (Naja kaouthia, UniProt P01391); assay: DELFIA (dose-response, capture format); settings: both partners purified
T1 construct: also called long chain αNTx from Naja kaouthia; source: bought: Latoxan

Row | Binder | binding result
1 | B1 | no binding (tested: 1 µM)
2 | B2 | no binding (tested: 1 µM)
3 | B3 | no binding (tested: 1 µM)
